Among the data in the Human Domainome abundance scans (Beltran et al. 2025) are abundance fitness values, retold here.

± gives the uncertainty stated by the source.

The labels stand for the following.
B1: Far upstream element-binding protein 2, residues 142 to 214; numbered along this chain, Q92945 (parent)
chain: RTSMTEEYRVPDGMVGLIIGRGGEQINKIQQDSGCKVQISPDSGGLPERSVSLTGAPESVQKAKMMLDDIVSR

In the data set the parent is B1. Briefly: abundance fitness (aPCA) (normalised: wild type 0, dead -1); higher = more abundant; growth selection in yeast, the domain comes from the species named. As to conditions: Homo sapiens.
For RTSMTEEYRVPDGMVGLIIGRGGEQINKIQQDSGCKVQISPDSGGLPERSVSLGGAPESVQKAKMMLDDIVSR [T54G], the abundance fitness is -0.586 ± 0.049.

As for RTSMTEEYRVPDGMVGLIIGRGGEQINKIQQDSGCKVQISPDSGGLPERSVSLAGAPESVQKAKMMLDDIVSR [T54A], the abundance fitness is -0.255 ± 0.047.

For the variant RTSMTEEYRVPDGMVGLIIGRGGEQINKIQQDSGCKVQISPDSGGLPERSVSLCGAPESVQKAKMMLDDIVSR [T54C], the abundance fitness is -0.2 ± 0.068.

Take RTSMTEEYRVPDGMVGLIIGRGGEQINKIQQDSGCKVQISPDSGGLPERSVSLEGAPESVQKAKMMLDDIVSR [T54E]: the abundance fitness was -0.135 ± 0.054.

For the variant RTSMTEEYRVPDGMVGLIIGRGGEQINKIQQDSGCKVQISPDSGGLPERSVSLFGAPESVQKAKMMLDDIVSR [T54F], the abundance fitness was -0.278 ± 0.089.

For the variant RTSMTEEYRVPDGMVGLIIGRGGEQINKIQQDSGCKVQISPDSGGLPERSVSLDGAPESVQKAKMMLDDIVSR [T54D], the abundance fitness is -0.424 ± 0.081.

In the case of RTSMTEEYRVPDGMVGLIIGRGGEQINKIQQDSGCKVQISPDSGGLPERSVSLHGAPESVQKAKMMLDDIVSR [T54H], the abundance fitness is -0.076 ± 0.077.

On to RTSMTEEYRVPDGMVGLIIGRGGEQINKIQQDSGCKVQISPDSGGLPERMVSLTGAPESVQKAKMMLDDIVSR [S50M], for which the abundance fitness was -0.125 ± 0.064.

In the case of RTSMTEEYRVPDGMVGLIIGRGGEQINKIQQDSGCKVQISPDSGGLPERQVSLTGAPESVQKAKMMLDDIVSR [S50Q], the abundance fitness is -0.139 ± 0.057.

RTSMTEEYRVPDGMVGLIIGRGGEQINKIQQDSGCKVQISPDSGGLPERNVSLTGAPESVQKAKMMLDDIVSR [S50N]: the abundance fitness is -0.085 ± 0.11.

Regarding RTSMTEEYRVPDGMVGLIIGRGGEQINKIQQDSGCKVQISPDSGGLPERPVSLTGAPESVQKAKMMLDDIVSR [S50P], the abundance fitness is -0.159 ± 0.055.

RTSMTEEYRVPDGMVGLIIGRGGEQINKIQQDSGCKVQISPDSGGLPERWVSLTGAPESVQKAKMMLDDIVSR [S50W]: the abundance fitness is -0.118 ± 0.061.

Consider RTSMTEEYRVPDGMVGLIIGRGGEQINKIQQDSGCKVQISPDSGGLPERVVSLTGAPESVQKAKMMLDDIVSR [S50V], for which the abundance fitness was -0.002 ± 0.046.

Take RTSMTEEYRVPDGMVGLIIGRGGEQINKIQQDSGCKVQISPDSGGLPEREVSLTGAPESVQKAKMMLDDIVSR [S50E]: the abundance fitness is -0.193 ± 0.059.

Turning to RTSMTEEYRVPDGMVGLIIGRGGEQINKIQQDSGCKVQISPDSGGLPERGVSLTGAPESVQKAKMMLDDIVSR [S50G], the abundance fitness is -0.071 ± 0.043.

For RTSMTEEYRVPDGMVGLIIGRGGEQINKIQQDSGCKVQISPDSGGLPERYVSLTGAPESVQKAKMMLDDIVSR [S50Y], the abundance fitness was -0.137 ± 0.085.

Turning to RTSMTEEYRVPDGMVGLIIGRGGEQINKIQQDSGCKVQISPDSGGLPERRVSLTGAPESVQKAKMMLDDIVSR [S50R], the abundance fitness turned out to be 0.018 ± 0.042.

With RTSMTEEYRVPDGMVGLIIGRGGEQINKIQQDSGCKVQISPDSGGLPERLVSLTGAPESVQKAKMMLDDIVSR [S50L], the abundance fitness was -0.067 ± 0.045.

Take RTSMTEEYRVPDGMVGLIIGRGGEQINKIQQDSGCKVQISPDSGGLPERKVSLTGAPESVQKAKMMLDDIVSR [S50K]: the abundance fitness worked out at 0.044 ± 0.069.

Consider RTSMTEEYRVPDGMVGLIIGRGGEQINKIQQDSGCKVQISPDSGGLPERDVSLTGAPESVQKAKMMLDDIVSR [S50D], for which the abundance fitness was -0.289 ± 0.074.

For the variant RTSMTEEYRVPDGMVGLIIGRGGEQINKIQQDSGCKVQISPDSGGLPERIVSLTGAPESVQKAKMMLDDIVSR [S50I], the abundance fitness came to 0.126 ± 0.11.

Take RTSMTEEYRVPDGMVGLIIGRGGEQINKIQQDSGCKVQISPDSGGLPERFVSLTGAPESVQKAKMMLDDIVSR [S50F]: the abundance fitness is -0.218 ± 0.092.

On to RTSMTEEYRVPDGMVGLIIGRGGEQINKIQQDSGCKVQISPDSGGLPERTVSLTGAPESVQKAKMMLDDIVSR [S50T], for which the abundance fitness is 0.008 ± 0.055.

RTSMTEEYRVPDGMVGLIIGRGGEQINKIQQDSGCKVQISPDSGGLPERSVVLTGAPESVQKAKMMLDDIVSR [S52V]: the abundance fitness was found to be 0.041 ± 0.041.

On to RTSMTEEYRVPDGMVGLIIGRGGEQINKIQQDSGCKVQISPDSGGLPERSVHLTGAPESVQKAKMMLDDIVSR [S52H], for which the abundance fitness came to 0.043 ± 0.075.

As for RTSMTEEYRVPDGMVGLIIGRGGEQINKIQQDSGCKVQISPDSGGLPERSVTLTGAPESVQKAKMMLDDIVSR [S52T], the abundance fitness is 0.068 ± 0.049.

With RTSMTEEYRVPDGMVGLIIGRGGEQINKIQQDSGCKVQISPDSGGLPERSVMLTGAPESVQKAKMMLDDIVSR [S52M], the abundance fitness came to 0.047 ± 0.06.

On to RTSMTEEYRVPDGMVGLIIGRGGEQINKIQQDSGCKVQISPDSGGLPERSVGLTGAPESVQKAKMMLDDIVSR [S52G], for which the abundance fitness was -0.249 ± 0.04.

Regarding RTSMTEEYRVPDGMVGLIIGRGGEQINKIQQDSGCKVQISPDSGGLPERSVLLTGAPESVQKAKMMLDDIVSR [S52L], the abundance fitness was found to be 0.059 ± 0.041.

Turning to RTSMTEEYRVPDGMVGLIIGRGGEQINKIQQDSGCKVQISPDSGGLPERSVFLTGAPESVQKAKMMLDDIVSR [S52F], the abundance fitness was found to be 0.007 ± 0.074.

Turning to RTSMTEEYRVPDGMVGLIIGRGGEQINKIQQDSGCKVQISPDSGGLPERSVNLTGAPESVQKAKMMLDDIVSR [S52N], the abundance fitness was -0.177 ± 0.093.

As for RTSMTEEYRVPDGMVGLIIGRGGEQINKIQQDSGCKVQISPDSGGLPERSVRLTGAPESVQKAKMMLDDIVSR [S52R], the abundance fitness is 0.01 ± 0.036.

Consider RTSMTEEYRVPDGMVGLIIGRGGEQINKIQQDSGCKVQISPDSGGLPERSVALTGAPESVQKAKMMLDDIVSR [S52A], for which the abundance fitness was -0.094 ± 0.044.

RTSMTEEYRVPDGMVGLIIGRGGEQINKIQQDSGCKVQISPDSGGLPERSVILTGAPESVQKAKMMLDDIVSR [S52I]: the abundance fitness was 0 ± 0.083.

RTSMTEEYRVPDGMVGLIIGRGGEQINKIQQDSGCKVQISPDSGGLPERSVPLTGAPESVQKAKMMLDDIVSR [S52P]: the abundance fitness is -0.874 ± 0.065.

RTSMTEEYRVPDGMVGLIIGRGGEQINKIQQDSGCKVQISPDSGGLPERSVCLTGAPESVQKAKMMLDDIVSR [S52C]: the abundance fitness worked out at 0.027 ± 0.058.

Take RTSMTEEYRVPDGMVGLIIGRGGEQINKIQQDSGCKVQISPDSGGLPERSVYLTGAPESVQKAKMMLDDIVSR [S52Y]: the abundance fitness was determined as 0.097 ± 0.083.
